Experimental data as given in US20200354692A1.

Biological target: NAD(P)+-dependent methanol dehydrogenase from Bacillus methanolicus MGA3 (Genbank EIJ77596.1, GI 387585261) (Bacillus methanolicus MGA3) (UniProt P31005)
Assay: cell-based or functional assay

ratio of "act" to methanol dehydrogenase (in vitro activation test with 5 M methanol, 2 mM NAD, 10 uM methanol dehydrogenase 2315A, pH 7.4) (ratio act : methanol dehydrogenase): 10
Substance: activator protein from Bacillus methanolicus MGA3 (locus tag MGA3_09170, GI 387591061, Accession EIJ83380) (from UniProt Q8KP10 1-185) (enzyme)
